Results as given in publication PMC7033278, “A Nonpeptide Oxytocin Receptor Agonist for a Durable Relief of Inflammatory Pain” (Scientific Reports, 2020).
Where two headings read alike, the source gives them in different places.

Columns and labels:
[1] = biological target: Transient Receptor Potential Vanilloid type-1 (TRPV1); parameters: method as in PMID 29117570; details: cited from earlier work
[2] = parameters: method as in PMID 19183510; details: humans and rats; listed as OT; cited from earlier work
[3] = parameters: method as in PMID 6831225; details: rat CSF (abstract: humans and rats), cited from earlier work
[4] = stated for comparison, no reference given; cited from earlier work
[5] = biological target: T1, ionotropic TRPV1 receptor (Homo sapiens, UniProt Q8NER1); assay: Eurofins functional profiling, TRPV1 agonist/antagonist; format: cell-based; details: 5 μM
T1 construct: Eurofins (contract assay)
Method: In vitro profiling of LIT-001 was performed by Eurofins as described in the Eurofins SafetyScreen-Functional panel, 2018[31]. The hepatotoxicity of LIT-001 was studied with cryo-preserved mouse hepatocytes. After unfreezing (optiTHAW and optiINCUBATE media, Xenotech) and cell viability control, cells (2 × 10^6 cells/ml) were dispatched in 96 well microtiterplates. LIT-001 was added to reach a concentration 1 μM in the presence of 1 × 10^6 cells/mL in a volume of 100 μl/well. The incubation was stopped at 4, 20, 40, 80 and 120 min in adding 100 μl of acetonitrile at 0 °C. A positive control was treated in the same conditions. All samples were analyzed by UHPLC coupled to a mass spectrometer (Shimadzu LC-MS 8030).

T1 sequence (Q8NER1 whole entry): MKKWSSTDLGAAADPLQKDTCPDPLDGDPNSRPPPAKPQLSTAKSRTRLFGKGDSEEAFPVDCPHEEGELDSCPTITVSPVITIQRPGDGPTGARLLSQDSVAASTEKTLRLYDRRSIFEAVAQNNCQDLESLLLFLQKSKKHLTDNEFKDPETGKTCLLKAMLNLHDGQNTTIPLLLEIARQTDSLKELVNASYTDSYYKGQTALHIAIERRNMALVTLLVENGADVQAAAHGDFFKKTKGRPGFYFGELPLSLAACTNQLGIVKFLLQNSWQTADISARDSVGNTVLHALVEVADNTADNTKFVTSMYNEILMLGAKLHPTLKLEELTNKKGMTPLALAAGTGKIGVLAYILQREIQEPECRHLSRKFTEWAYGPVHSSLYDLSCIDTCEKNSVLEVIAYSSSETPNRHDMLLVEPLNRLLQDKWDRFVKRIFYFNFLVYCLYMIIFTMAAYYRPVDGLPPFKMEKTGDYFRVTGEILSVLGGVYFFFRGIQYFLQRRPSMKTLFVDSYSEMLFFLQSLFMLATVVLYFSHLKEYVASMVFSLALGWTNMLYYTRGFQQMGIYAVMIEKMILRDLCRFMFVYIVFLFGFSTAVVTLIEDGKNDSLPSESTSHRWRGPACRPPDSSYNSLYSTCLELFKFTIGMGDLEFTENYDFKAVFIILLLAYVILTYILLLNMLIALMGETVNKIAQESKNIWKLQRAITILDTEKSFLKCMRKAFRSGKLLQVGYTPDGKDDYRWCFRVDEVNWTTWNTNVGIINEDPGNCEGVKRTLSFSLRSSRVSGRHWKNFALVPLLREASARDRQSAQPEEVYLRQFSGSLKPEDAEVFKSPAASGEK

Molecule	EC50 [1] [nM]	half-life in the blood circulation [2] [min]	half-life in cerebrospinal fluid (CSF) [3]	half-life in cerebrospinal fluid (CSF) ([3]; listed as OT)	half-life [4]	agonist or antagonist activity at TRPV1 receptor [5]
Oxytocin	316	5	around twenty	around 20 minutes	less than 15 min	
Cc1ccccc1N1CCN(S(=O)(=O)C[C@]23CC[C@H](C[C@@H]2NC(=O)[C@@H](N)CCS(C)(=O)=O)C3(C)C)CC1 [L-368,699, reference compound]						neither LIT-001 nor the OT antagonist L-368,699 displayed any significant agonist or antagonist activity
